The source of these data is paper PMC9839326 (Science Advances, 2023).

The target of the experiment is cytochrome f (Cyt f) of spinach Cyt b6f (spinach (Spinacia oleracea), UniProt P16013 36-320). In words: cryo-EM structure.
Chain of cytochrome f (Cyt f) of spinach Cyt b6f (P16013 36-320): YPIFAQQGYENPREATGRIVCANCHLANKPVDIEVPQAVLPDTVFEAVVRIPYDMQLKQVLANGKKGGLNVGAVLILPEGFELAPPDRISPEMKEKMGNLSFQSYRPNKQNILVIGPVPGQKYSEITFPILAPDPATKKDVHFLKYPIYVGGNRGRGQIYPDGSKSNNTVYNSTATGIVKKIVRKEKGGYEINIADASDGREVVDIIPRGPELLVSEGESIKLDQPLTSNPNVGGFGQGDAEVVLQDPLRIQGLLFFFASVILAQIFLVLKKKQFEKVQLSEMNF

B1: plastocyanin (PC) from spinach (natural protein)
chain: VEVLLGGGDGSLAFLPGDFSVASGEEIVFKNNAGFPHNVVFDEDEIPSGVDAAKISMSEEDLLNAPGETYKVTLTEKGTYKFYCSPHQGAGMVGKVTVN
With B1, the binding result is “binds”.
